# According to patent US7842469B2, “Bioluminescence resonance energy transfer (BRET) systems and methods of use thereof” (Stanford University, priority 2005, dated 2010):
# Numbering of substitutions follows the chain as printed. Names and notes keep the numbering of the source.
# B1: M185V/Q235A: destabilized RLuc double mutant M185V/Q235A for use as a reporter gene (protein)
# chain: MASKVYDPEQRKRMITGPQWWARCKQMNVLDSFINYYDSEKHAENAVIFLHGNAASSYLWRHVVPHIEPVARCIIPDLIGMGKSGKSGNGSYRLLDHYKYLTAWFELLNLPKKIIFVGHDWGACLAFHYSYEHQDKIKAIVHAESVVDVIESWDEWPDIEEDIALIKSEEGEKMVLENNFFVETVLPSKIMRKLEPEEFAAYLEPFKEKGEVRRPTLSWPREIPLVKGGKPDVVAIVRNYNAYLRASDDLPKMFIESDPGFFSNAIVEGAKKFPNTEFVKVKGLHFSQEDAPDEMGKYIKSFVERVLKNEQ
# modifications: Chemically synthesized Renilla Luciferase
# notes: destabilized RLuc double mutant M185V/Q235A for use as a reporter gene
# B2: F116L/C124A: RLuc mutant F116L/C124A (protein)
# chain: B1 chain with F116L, C124A, V185M, A235Q
# B3: M185V: destabilized RLuc single mutant M185V (without C124A) (protein)
# chain: B1 chain with A235Q
# modifications: Chemically synthesized Renilla Luciferase
# B4: A54P/C124A: RLuc mutant A54P/C124A (protein)
# chain: B1 chain with A54P, C124A, V185M, A235Q
# B5: A54G/A55G/C124A: RLuc mutant A54G/A55G/C124A (protein)
# chain: B1 chain with A54G, A55G, C124A, V185M, A235Q
# B6: E44G/C124A: RLuc mutant E44G/C124A (protein)
# chain: B1 chain with E44G, C124A, V185M, A235Q
# B7: F33R/I34M/C124A: RLuc mutant F33R/I34M/C124A (protein)
# chain: B1 chain with F33R, I34M, C124A, V185M, A235Q
# B8: C124A/F180A: RLuc mutant C124A/F180A (protein)
# chain: B1 chain with C124A, F180A, V185M, A235Q
# B9: A54P/A55T/C124A: RLuc mutant A54P/A55T/C124A (protein)
# chain: B1 chain with A54P, A55T, C124A, V185M, A235Q
# B10: C124A/F261L/F262L: RLuc mutant C124A/F261L/F262L (protein)
# chain: B1 chain with C124A, V185M, A235Q, F261L, F262L
# Test: Serum stability in mouse serum at 37° C.
# Format: in vitro ADME
# Settings: mouse serum, 37° C., mono-exponential fit
# Procedure: (§1) Serum stability measurements were done by mixing 0.5 μl dilute Luciferase with either 20 μl mouse serum or 50 μl rat serum (Equitech-Bio, Kerrville, Tex.) placing the sample in a 37° C. incubator, and removing aliquots for activity testing. To calculate serum half-lives, mono-exponential decay curves were fit to the serum stability data using a Nelder/Mead Simplex non-linear least squares minimization algorithm provided by the Octave numerical programming language. Emission spectra at ambient temperature were measured using a Triax 320 (Horiba Jobin Yvon, Edison, N.J.), which incorporates an optical grating device with a liquid N2 cooled CCD detector.
row,Molecule,Serum τ1/2 (h) mouse
1,B1,0.5 h
2,B2,11 h
3,B3,0.8 h
4,B4,14 h
5,B5,2.4 h
6,B6,2.6 h
7,B7,0.3 h
8,B8,1.6 h
9,B9,119 h

# Same assay, conditions: murine serum
row,Molecule,stability (lability) compared to the native enzyme
1,B1,half the stability

# Same assay, conditions: murine serum; listed as double mutant
row,Molecule,stability (lability) compared to the native enzyme
1,B1,twice the lability

# Test: Luciferase activity of purified RLuc mutants (light output integrated over 10 s, luminometer)
# Format: biochemical
# Settings: benzyl-coelenterazine; relative to native enzyme
# Source text: Luminometer Calibration: Light measurements were made using a Turner 20/20 and later a Turner 20/20n luminometer (Turner Designs, Sunnyvale, Calif.). The luminometers were calibrated to absolute units (photons/s) using the luminol light standard performed in dimethyl sulfoxide (DMSO). No corrections were applied for the spectral sensitivity of the luminometer, as the spectral peak of luminol chemiluminescence in DMSO (486 nm) is close to the spectral peak of Renilla Luciferase bioluminescence (482 nm).
# Characterization of Renilla Luciferase Mutants: Luciferase activity was measured by adding 1 μl of sample (diluted as necessary in EB containing 1% HSA) to 100 μl room temperature 100 mM sodium phosphate buffer (pH 7), manually adding 1 μl of 0.5 μg/μl coelenterazine or analog, manually mixing, and reading for 10 s in a luminometer. The time between the addition of the luciferin and the start of measurement was approximately 4 s.
row,Molecule,Activity (relative to RLuc) bc
1,B1,2.7
2,B2,1.0
3,B3,2.6
4,B4,0.04
5,B5,0.10
6,B6,0.78
7,B7,0.15
8,B8,0.01
9,B10,0.00
10,B9,0.15

# Same assay, conditions: bisdeoxycoelenterazine; relative to native enzyme
row,Molecule,Activity (relative to RLuc) bdc
1,B1,20
2,B2,1.8
3,B3,20
4,B4,0.06
5,B5,0.19
6,B6,0.98
7,B7,0.20
8,B8,0.01
9,B10,0.00
10,B9,0.22

# Same assay, conditions: coelenterazine-cp; relative to native enzyme
row,Molecule,Activity (relative to RLuc) cp
1,B1,14
2,B2,1.3
3,B3,12
4,B4,0.05
5,B5,0.06
6,B6,0.74
7,B7,0.16
8,B8,0.03
9,B10,0.00
10,B9,0.11

# Same assay, conditions: coelenterazine-n; relative to native enzyme
row,Molecule,Activity (relative to RLuc) n
1,B1,7.1
2,B2,0.88
3,B3,4.1
4,B4,0.08
5,B5,0.15
6,B6,0.66
7,B7,0.12
8,B8,0.01
9,B10,0.00
10,B9,0.38

# Same assay, conditions: native coelenterazine
row,Molecule,improvement in light output (activity) compared to native RLuc
1,B1,5 fold
2,B3,about 4 fold

# Same assay, conditions: native coelenterazine; relative to native enzyme
row,Molecule,Activity (relative to RLuc) native
1,B1,4.8
2,B2,1.3
3,B3,4.4
4,B4,0.05
5,B5,0.12
6,B6,0.94
7,B7,0.15
8,B8,0.02
9,B10,0.00
10,B9,0.21

# Test: Bioluminescence emission spectra
# Format: physicochemical
# Settings: emission spectrum with native coelenterazine
# Procedure: as §1
Molecule,Wavelength (nm) mean,Wavelength (nm) peak
B2,502 nm,486 nm
B4,482 nm,468 nm
B5,492 nm,476 nm
B6,502 nm,486 nm
B7,497 nm,481 nm
B8,504 nm,488 nm
B9,483 nm,470 nm

# Test: Serum stability in rat serum at 37° C.
# Format: in vitro ADME
# Settings: mono-exponential fit
# Procedure: as §1
row,Molecule,Serum τ1/2 (h) rat
1,B1,0.2 h
2,B2,9.4 h
3,B3,0.3 h
4,B4,13 h
5,B5,3.0 h
6,B6,3.3 h
7,B7,0.3 h
8,B8,1.6 h
9,B9,129 h
